In paper PMC10513939, “Phylogenetic and functional analysis of cyanobacterial Cytochrome c 6-like proteins” (Frontiers in Plant Science, 2023):
Values belong to the binder of their own block, whether it stands above or below them.

Tests used:
[1] = molecular target: T1, Cytochrome f (soluble form, subunit of the cytochrome b 6 f complex) (Nostoc sp. PCC 7119, UniProt Q93SW9 45-298, heme group; reduced for ITC); experiment: ITC
T1 chain: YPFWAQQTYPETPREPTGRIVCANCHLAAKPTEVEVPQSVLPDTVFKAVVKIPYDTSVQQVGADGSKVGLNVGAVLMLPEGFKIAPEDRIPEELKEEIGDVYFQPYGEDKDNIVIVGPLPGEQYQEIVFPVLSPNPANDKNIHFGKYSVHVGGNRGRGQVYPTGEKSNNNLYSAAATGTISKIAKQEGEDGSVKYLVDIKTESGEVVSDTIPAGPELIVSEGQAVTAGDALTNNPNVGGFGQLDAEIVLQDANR

[2] = molecular target: T1, Cytochrome f (soluble form, subunit of …); experiment: ITC
[3] = molecular target: T2, Cytochrome f (soluble form, subunit of the cytochrome b 6 f complex) (Nostoc sp. PCC 7119, UniProt Q93SW9 45-298, heme group; reduced for ITC); experiment: ITC; oxidised Cyt c 6, c 6BC or c 6D (400 uM) injected (2 uL injections) into reduced Cyt f (40 uM) in the cell; 5 mM phosphate buffer pH 7.5, 0.02% (w/v) Triton X-100, 25 °C; single binding site model; details: both partners purified
T2 construct: Cytochrome f, subunit of the cytochrome b6f complex, soluble form heterologously expressed; construct as described in earlier work (Albarran et al., 2005); PCC 7120; Soluble form: as far as I recall, the lumenal domain without the C-terminal membrane anchor and without the signal peptide; also called Cyt f; soluble Cyt f; source: E. coli co-transformed with pEC86, extracted from the periplasmic …
T2 sequence (looked up): T1 chain

[4] = molecular target: Cytochrome f (soluble form, subunit of the cytochrome b 6 f complex) (Nostoc sp. PCC 7119) (UniProt Q93SW9); experiment: as above

Kd [1]: 13 µM
Ka [2]: 78000 M⁻¹
stoichiometry N [3]: 1
B1: Cytochrome c 6 (natural protein, Nostoc sp. PCC 7119, UniProt P0A3X8 26-111, looked up)
chain: ADSVNGAKIFSANCASCHAGGKNLVQAQKTLKKADLEKYGMYSAEAIIAQVTNGKNAMPAFKGRLKPEQIEDVAAYVLGKADADWK
modifications: heme group; oxidised for ITC
notes: Cytochrome c6 (petJ) of Nostoc sp; PCC 7119; also called Cyt c 6; source: E. coli co-transformed with pEC86, extracted from the periplasmic fraction, purified (ion exchange chromatography)

Kd [1]: 11 µM
Ka [2]: 89000 M⁻¹
stoichiometry N [4]: 1
B2: Cytochrome c 6BC (natural protein)
chain: ENTINGEQIFSVHCAGCHINGSNIIRRGKNLQKKTLKKYGMDSLEAIEAIVTNGKNNMSAYKDRLSEQEIQDVAAYVLEQAEKGWR
modifications: heme group; oxidised for ITC

Kd [1]: 2 µM
Ka [2]: 500000 M⁻¹
fold higher KA and fold lower KD than for Cyt c 6 and Cyt c 6BC with Cyt f [4]: 6 fold
stoichiometry N [4]: 1
B3: Cytochrome c 6D (natural protein)
chain: AELPTGAKIFNNNCASCHIGGGNILISEKTLKKEALLKYLEDYETNSIQAIIHQIQYGKNAMPAFKDKLSTEEILEVAAYIFQKAEKDWSNLEKEG
modifications: heme group; oxidised for ITC
